Assay results published in US20090275085A1, “Enzyme for Obtaining Prebiotic Oligosaccharides” (CONSEJO SUPERIOR DE INVESTIGACIONES CIENTIFICAS, priority 2004, published 2009).

Assays:
[1] = substrate: OC[C@H]1O[C@H](O[C@H]2[C@H](O)[C@@H](O)[C@@H](O[C@H]3[C@H](O)[C@@H](O)C(O)O[C@@H]3CO)O[C@@H]2CO)[C@H](O)[C@@H](O)[C@@H]1O; experiment: purified protein, by the assay type; conditions: other: 30 minutes, 100 ng of enzyme; starch supplied by Avebe, 8100 Da
[2] = substrate: OC[C@H]1O[C@H](O[C@H]2[C@H](O)[C@@H](O)[C@@H](O[C@H]3[C@H](O)[C@@H](O)[C@@H](O[C@H]4[C@H](O)[C@@H](O)[C@@H](O[C@H]5[C@H](O)[C@@H](O)[C@@H](O[C@H]6[C@H](O)[C@@H](O)[C@@H](O[C@H]7[C@H](O)[C@@H](O)C(O)O[C@@H]7CO)O[C@@H]6CO)O[C@@H]5CO)O[C@@H]4CO)O[C@@H]3CO)O[C@@H]2CO)[C@H](O)[C@@H](O)[C@@H]1O; experiment: Kinetic constants of X. dendrorhous α-glucosidase glycosylhydrolase activity; type: biochemical, Xanthophyllomyces dendrorhous; conditions: other: 30 minutes, 100 ng of enzyme; starch supplied by Avebe, 8100 Da
Procedure: The tests were carried out in 30 minutes and with 100 ng of enzyme for each reaction.

B1: X. dendrorhous α-glucosidase (purified enzyme) (Phaffia rhodozyma) (protein)
chain: SSPSSFQGPSELLSNQKRYSKRDNTGSYSLNTTACGGYSVSSVDSTGNGLQAHLSLNGEPCRAFGVDYTDLLVDVEYQTQERIRVHIYDADKIEFQVPENIFPKPQSDNGLDLNQTDLVFNHQENPFAFWITRRNASDDETPIFDTRPSSKTSVDYPIEPPYGGVEKVNSSTAVPDESGGLVFEAGYLEISSFLPKDANIFGLGEVVATSGFRRNSSATVQTMWARDVGDPENQNMYGDHPIYIETRFNKNGASSSHGVFLLNSEGMDIVLRDEVIEYRPLGGSLDFYFISGPTPIKVIEQYSEISGRSLLHPYWSYGFHLCRWGYDNITQNREIVQSMKDANLPLETFWNDIDWMDTYRNFVPAPNRFEPADYKAFVDELHANNQHYIPIIDAAIGVVTNDTDVYDTFTAGDAANTYIKNPDGSNYIGKVWPGYTVFPDWFQNSTQDWWTEAFINYSQIVEFDGIWIDMNEPSSFCEGSCGSSADLNNITPPFLLPGQPGAVTLIDGTFPEGYNATLWGYSGNLTINGSLTFNSTPPNYGRPDRRSQLSRRVGQGVDVNTPAYEIHNALDKLAISTVSPNATHLNGDIQDIDVHNLFGYMEGIATFNVWNTYKPNKRPFIVSRSTFPGAGTKVAHWLGDNYSTWKYLRYVNQGVLQFQIYGIPMVGADTCGFAGNTDEELCNRWMQLAAFYPFFRNHNIKSALAQEPFRWDSVAEATRNATAIRYALLPYWYTLFYQASSVGTPPIRALFYEFDQEELLSVDAQFLVGRNVLVTGAMYPNITSVEGYLPGGDDEIWRDWYTHEVIKPTSDDGKYDFPAPLGHIPVTIRSGAIFLLHSEPGMTVYDTRESPYSILVSLDKSSEAEGYAFIDDGESFPVTDSREVHLGAAEGKVYGWTSGSYNVGQKLAQVTVLGVKTEPSTVTFNGQAITTGWTYEADLERFVVTGLQGDLNGGWELDWA
[1]
  Km: 550 µM
  kcat: 4 s⁻¹
  kcat/Km: 7270 M⁻¹ s⁻¹
[2]
  Km: 860 µM
  kcat: 5 s⁻¹
  kcat/Km: 5800 M⁻¹ s⁻¹
